# Assay results taken from the DeepSol protein solubility set.
# Assay: soluble on expression in E. coli; label from the status in PepcDB or PDB records
row,Sequence,soluble on expression in E. coli
1,MLSEGTHLRPYETLGAHADTMDGVTGTRFSVWAPNARRVSVVGQFNYWDGRRHPMRLRKESGIWELFIPGAHNGQLYKYEMIDANGNLRLKSDPYAFEAQMRPETASLICGLPEKVVQTEERKKANQFDAPISIYEVHLGSWRRHTDNNFWLSYRELADQLVPYAKWMGFTHLELLPINEHPFDGSWGYQPTGLYAPTRRFGTRDDFRYFIDAAHAAGLNVILDWVPGHFPTDDFALAEFDGTNLYEHSDPREGYHQDWNTLIYNYGRREVSNFLVGNALYWIERFGIDALRVDAVASMIYRDYSRKEGEWIPNEFGGRENLEAIEFLRNTNRILGEQVSGAVTMAEESTDFPGVSRPQDMGGLGFWYKWNLGWMHDTLDYMKLDPVYRQYHHDKLTFGILYNYTENFVLPLSHDEVVHGKKSILDRMPGDAWQKFANLRAYYGWMWAFPGKKLLFMGNEFAQGREWNHDASLDWHLLEGGDNWHHGVQRLVRDLNLTYRHHKAMHELDFDPYGFEWLVVDDKERSVLIFVRRDKEGNEIIVASNFTPVPRHDYRFGINQPGKWREILNTDSMHYHGSNAGNGGTVHSDEIASHGRQHSLSLTLPPLATIWLVREAE,soluble
2,MLSHETIWSAIDTLAERHQLTPSALAKRAGLDPTSFNKSKRFGPDGRKRWPSTESVSKVLEATGASVDQFFGYAFGRAQTMQPSGADNAIPLLGFAQAGSGGFFDDGGFPAGQGWDVVEFPSSPERKQGVYALEVQGESMMPLYRDGDILIVEPGAPVRRGDRVVLKSRDGEVMAKVLARQSPKNIELLSLNPEHPNRSFDMADVEWIARIIWASQ,not soluble
3,MLSKFVVVEVSNSNNTMTLVEYLVTHGFDKFAVVTDLVDHPSFKYKDGSSSPESPSTTASTAAQHTPPRTAVSTPTSINTPVPPHQNKQRHSIDKIAANLSTKKVSPSSIEKQLQRTSHNPLHQLSTPHALSQLQKLLEEQHKINQMNIQKKEQERQQAEIQRILLQQANAAQINHSFGLERLTPEYDDNHHSETISKASSEDLKTEPDSTDFGLGTSDDQVRASMLHLLHPVFAPAFGMLDAENIFGAASKPTTPASKRRNTDSNGAPSKKHRWLPVNELEESRSSRGKNCGRVHCKATYKCALCGKPTTLNSTGSRWNLLRHVIMIHSDCKPYKCWDCDFTGIKSNVISHARQCRHNAEDAHDITTDEMRAEWNLRLHECFPDYVRAKERGWQPEEVTVKKEEVEESPTLVKQELTLVKQEPTFAEQLEPMAQPLV,soluble
4,MLSMPWSEIDTVLLDMDGTLLDLHYDEHFWMQHLPQRYAELHGISFAMAWLELKPLFENNAGTLNWYCLDFWSTELKLSVRDLKREIAHMIALRPDAETFLAAIKQAGKRVIMITNAHRDSLSLKMERIELAPYFERLISSHDYGFPKESQHFWDALKAETAFDPARSLFIDDTLPILRSARHFGVAHLLAVSQPNSQKGPKDTEEFAAVGDYRELIKGL,not soluble
5,MLSNDILRSVRYILKANNTDLARILALGNVDATPEQIAIWLRKEEEEGFQRCPDIVLSSFLNGLIYEKRGKDEAAPALTAERRINNNIVLKKLRIAFSLKTDDILAILTGQLFRVSMPEITAMMRAPDHKNFRECGDQFMRYFLRGLAAREHAAK,not soluble
6,MLSSINMVKIGLEVHVHLTSLKTKLFCSCPSDYTGKDPNTNVCPICLGLPGAIPVLNENAVKAAIMVALAINAEIANSLIMVRKHYFYPDMAKNYQISQYDGPGSIAISKGGYLKLREGKTVRIRRINIEEDPAKIIYPTGSMLTSKYTLLDYNRSGMGLLEIVTEPDMTEPKEAREFLEKLRSILEHLGVCNCDLEGAMRADANVSVEGGERVEIKNIGSPREVEEALKYEIARQKAAIAQGLPVKRETRHWDSERKVTVPTRTKETEEDYRYFPDPDLPPYPITQDLIEEIRKTLPELPDLRIKRLVTQYGISDYDATVLVMDKALADLFEETAKHYSNYKKLVNLLINDYLRWLNDKNLRPSQSKAGSQHLVELLKLLDDGVITIKIAKEILPEIVLEGKMPSSIIKERGLVAIKDEDYLINVIKEVINEEPDAAEKAKNDPKVINYLVGKVMKKTGKRADPQLTNELIKKILGIK,soluble
7,MLSSKTFLNLVRTSRCRMSSSFAPKPAERTAQHSASIWVEFTTLAAETKAVNLGQGFPDSPAPKFVTDLLENLSKHPELTAAHQYTRGYGHPMLVDILAKMYSHFYNVQVDPMNEVLVTVGAYLSLYYAFLGWVNKGDEVLIIEPAYDCYYPQVKFAGGVPVPVVMNLAEGATSASQFTIDFADMESKINEKTKMLVINNPHNPTGKLFSRHELEKLAEIAKKHNLIVIADEVYEFHVWDKNDMVRFASLPGMYERTISIGSAGKAFSVTGWKLGWAVGPKQLLEPLKAIHQNCVFTCSTPTQMAIAEAFRLDWPKFLSDPENSYLATGLSGELRAKRDKLAKMLEEGNFRPIIPDAGYFMLADYVHLKEGINLPTEEDPDDFVFSRWLCREKKLAVIPPSAFYSARDNKLKNSNMVRLCYFKKDETLDAAEEILKKLGKQ,not soluble
8,MLSTNNITMQFGSKPLFENISVKFGGGNRYGLIGANGCGKSTFMKILGGDLVPSGGNVFLDPNERLGKLRQDQFAFENNTVLDTVIMGHGELWEVKEERDRIYAMAEMSEEDGYKVADLEVAYGEMDGYSAEARAGELLLGVGIPVEQHYGLMSEIAPGWKLRVLLAQALFSDPEILLLDEPTNNLDIDTIRWLEQVLNERNSTMIIISHDRHFLNMVCTHMADLDYGELRVYPGNYDEYMTAATQARERLLSDNAKKKAQISELQSFVSRFSANASKSKQATSRARQIDKIQLDEVKASSRQNPFIRFDQDRKLFRNALEVEMLTKGFDNGPLFKNLTLRLEVGEKVAILGPNGIGKSTLLKTLLGEYESDAGTVKWSENSKIGYYAQDHASDFDIDLTVFDWMSQWKQEKDDEQAVRSVLGRLLFSQDDIKKKVSVLSGGEKGRMLFGKLMMQRPNILVMDEPTNHLDMESIESLNMALEMYEGTLIFVSHDREFVSSLATRVIEMTPNKLIDFTGNYEDYLSSQGIHS,not soluble
9,MLTEGISIQSYDGHTFGALVGSPAKAPAPVIVIAQDIFGVNAFMRETVSWLVDQGYAAVCPDLYARQAPGTALDPQDERQREQAYKLWQAFDMEAGVGDLEAAIRYARHQPYSNGKVGLVGYSLGGALAFLVASKGYVDRAVGYYGVGLEKQLNKVPEVKHPALFHMGGQDHFVPAPSRQLITEGFGANPLLQVHWYEEAGHSFARTGSSGYVASAAALANERTLDFLVPLQSRKP,soluble
10,MLTFLIPTAKEMTIPKESHPHLLPQDSQAILKIMAAMTTEDLAKSYRIKEESAKKEQQRWQDMASQQSLAYPAYQLFNGLMYRHIKRDKLTTQEQAYLTQQVYITSSFYGIIPANHPIAEHRHDFHTRIKIEGQSLKSYWRPCYNQFAKEHPQVISLLSSEFDDVFSKDCKQLWISPKFMAEKEGQFKTHSTISKKARGAFLTACMENNCQTVDSLKSLVFAGFYYHPDLSTDHEFVYIKKEA,not soluble
11,MLTHQFNPYSACTSILVGKNASADGSTMIGRNEDSRAAWAKKMIIHAHREFEEPQTFKSQDQTHPFTMTLPKIRAKYTATPEWTAEYGLFEEDGINEYGVAMSATESAYCNTRVLAADPYVKDGIGEEAMVTVTLPYIHSAREGVERLGHIIEEHGTYETNGILFSDVNEVWYMETGAGHYWVAQRIPDDAYAVVANQLAIQEIDFSDHDNYLYAKDIRNFVLDNQLASMDNGLNFREVFGTADLSDRYYNTPRVWYGQRCFTPSVTQTPESFDLPFIQRADGLIHIDQVQGYLASHYQGTPFDPVGQGTATEKHQYRPISLAKTQESHVLQLRPDLPVTLSGIHWLAMGVAAESVYVPFYAGATTTPAAYQVATEKYDATSAYWIFKHVGILVDAHYHELHGELQTVQKELAIQLGHHIIVTDQQVAALTGDELAMALTKANQKAVDQALNTMQALAADLITKSTDMSPLNYDTDLNLLEHHHHHH,not soluble
12,MLTLENQIKEEREQDNSESPNGRTSPLVSQNNEQGSTLRDLLTTTAGKLRVGSTDAGIAFAPVYAMGAPSSKSGRTMPNILDDIIASVVENKIPPSKTSKINVKPELKEEPEESIISAVDENNKLYSDIPHSWICEKHILWLRIIRIAVIGSFSKNVGNKDSLQWFLVCIRKLEHHHHHH,not soluble
13,MLTLKGKYNEAKVFTDNVDDNTIGQIITLCNQPFAKDSKIRIMPDTHGGKGCVIGTTMTIQDKIVPNLVGVDIGCGLYVVKLKPGKLKMDFDKLDKVIRERVPSGSKTHDKPVDEFDLEGIVAPIHHGWVARSIGTLGGGNHFIEVNQGSDGIYLVIHSGSRVLGKEIAEYHQEVAYKRLDILRKELKLDATAAKKRGNLEMANNLNGEREQVKLDYDLSYVTGVDLKNYLNDMEIAQKFAARNRYVMAQIILKAMKWDKAVVSAFDCVHNYIDIEHNMLRKGATSAQLGEQIIVPLNMREGSILATGKGNADWNYSAPHGAGRMLSRSKAKAQISLESYQAAMKDVWTTSVSKKTIDEAPKAYKSAKQLLADVEDTMEIQEIIKPLYNFKALEHHHHHH,soluble
14,MLTTLAISNYRTLREIVLPLGRLNVVTGANGSGKSNLYKALRLLAQTAQGGVVNALALEGGLDSCFWAGPENLTKGMLAGDTPIEATVRQAPKRLKLGFAGEDFSYLIELGLPKPDSTTLFGLDPQIKREAIWNGAKYRPASVLVERRGPMVKSRSQDGQGWITLSAHLQSSDSIFTELADPERSPEVLKLRDSIRAWRFYDHFRTDTDAPARRPQLGTATPVLHHDGRDLPSAIQTIFEIGDKSAFDHAVSDAFPGAKVRITPQAGGILQLEFQQQGLLRPLYASELSDGTLRYLLLIAALLTPRPPELMVLNEPETSLHPDLLPALARLIAKASEVCQLWVVSHANRLINALNQFEECNTLALDKTLGQTQILGQDLLNTPSWLWQNRLEHHHHHH,soluble
15,MLTTTTNDILDQLRPLTVTKRGGAQTKFHPYKIDFVLRRLLATDDEVRVVKQALVAQYQDADNIDTRELRSTMMQILNAQGLTAAAKAYQDYFEAEQQRFAAATN,not soluble
16,MLTYQVKQGDTLNSIAADFRISTAALLQANPSLQAGLTAGQSIVIPGLPDPYTIPYHIAVSIGAKTLTLSLNNRVMKTYPIAVGKILTQTPTGEFYIINRQRNPGGPFGAYWLSLSKQHYGIHGTNNPASIGKAVSKGCIRMHNKDVIELASIVPNGTRVTINR,soluble
17,MLVCDFKTTCLNWVNVDDVVMGGVSNSAMQLTQDGTAVFAGNLSLENSGGFASVRTVLERRNYADFAGFRIRVKGDGKRYSFRARNDERFDGVVYKFDFETVPDEWMEIDLSFAGFIPSFRGRTLVDVPPLDSSNIVQIGLLVSNKQAGAFWLEIAWIEAYRADTVASSFRLEHHHHHH,soluble
18,MLVIKGVKAYTMSNIGVVEKANIIVKDGKIVDVTQELPPLEGKTVVDGEGLIALPGLIDPHTHLGVYSLEWEYGDHGTEKSDPITPHFKVIDGLDIFDPGFKDAIAGGVTTVSVEPGAPLSWASYEKTTIMPGQSAILKTNGRIIKEEAGIKIAVGGHVRKFLEELKLTPTTRMGIFAMIRMILHKAKEYLEKEDKQYDPKLEALATLLKNETVARVHAHLSRDMLSIIRLLKEFDIKNIIIEHGTEAYKISDVLKENGIPVILGPVIFPRRGVELRELSSKLAFQLYNSGMMFALTTDHPALPIQYLTLVAAACVGEGLPYEEALKSITINPAKILGIDRFVGSLEPGKDADIVLFDGDPLNPESKVMYTIIDGEVVYER,soluble
19,MLVNGKWTADWQPVQKADDHGRFVRQVSSFRNWITPDGSAGPTGTGGFAAEAGRYRLYVALICPWASRTLMARRLKGLDGLIPVTVVNPVMGTQGWEFGGHDDAEEDPLFGARHLHEIYTRAEPQFTGRATVPVLWDMKRDAMVNNESADILRMFDTAFEGLAPSDLRLYPAALAGEIDALNAQVYDRLNNGVYKAGFASTQEAYDEAVAGVFEMLDHLEYRLTGDYIFGGALTETDIRIFVTLIRFDAAYHGLFKTNRRQIADYPRLWAYMRRILARPGVRETVNMDHITRGYYSIKALNPSRIRPVGPAHIEAALRETAAGI,not soluble
